Here are results for seven sequences from the Immune Epitope Database (IEDB).

One experiment concerns the target HLA-A*11:01. Description: IEDB peptide-MHC binding, purified MHC/direct/fluorescence; filed as Kd, often an IC50 or EC50 that approximates it; ≥ and ≤ were set here for values at or beyond the usual limits of such assays.
For a further experiment, the target named is HLA-B*15:01. The experiment is described as above.
A further experiment concerns the target HLA-A*01:01. The description is as above.
The target in the next experiment is HLA-B*08:03. Described as above.
Experiment [1] deals with HLA-B*18:01. Described as above.
The target in the next experiment is HLA-B*27:05. The description is as above.
The target of the next experiment is HLA-A*02:01. Described as above.
The target of the next experiment is HLA-B*58:01. The description is as above.
Another experiment concerns the target HLA-B*44:02. The description is as above.
The next experiment has as its target HLA-B*46:01. The description is as above.
For another experiment, the target named is HLA-A*29:02. The experiment is described as above. Particulars: source organism: Influenza A virus (A/Hong Kong/507/97(H5N1)).
A further experiment addresses HLA-A*03:01. The experiment is described as above.
The next experiment deals with HLA-B*40:01. The experiment is described as above.
The target of experiment [2] is HLA-B*08:01. The experiment can be described thus: IEDB peptide-MHC binding, purified MHC/competitive/fluorescence; filed as Kd, often an IC50 or EC50 that approximates it; ≥ and ≤ were set here for values at or beyond the usual limits of such assays. Particulars: source organism: Influenza A virus (A/X-31(H3N2)).
The target of a further experiment is HLA-B*51:01. The description is as above. To be noted: source organism: Influenza A virus (A/X-31(H3N2)).
The target in another experiment is HLA-A*31:01. Description: IEDB peptide-MHC binding, purified MHC/direct/fluorescence; filed as Kd, often an IC50 or EC50 that approximates it; ≥ and ≤ were set here for values at or beyond the usual limits of such assays.
The target of another experiment is HLA-B*48:01. The description is as above. Particulars: source organism: Campylobacter jejuni RM1221.
In a further experiment the target is HLA-B*07:02. The description is as above.
The target of another experiment is HLA-A*68:02. The description is as above.
In a further experiment the target is HLA-B*57:01. The experiment is described as above.
A further experiment has as its target HLA-B*15:17. The description is as above.
A further experiment addresses HLA-B*15:02. Described as above.
In experiment [3] the target is HLA-B*08:01. The experiment is described as above.
A further experiment addresses HLA-A*24:02. The experiment is described as above.
The target in the next experiment is HLA-A*26:01. The experiment is described as above.
In another experiment the target is HLA-A*26:02. The experiment is described as above. Particulars: source organism: Mammarenavirus lassaense.
In the next experiment the target is HLA-A*23:01. Described as above. Particulars: source organism: Mammarenavirus lassaense.
The next experiment has as its target HLA-A*24:03. Described as above. To be noted: source organism: Mammarenavirus lassaense.
Experiment [4] concerns the target HLA-A*02:06. The experiment can be described thus: IEDB peptide-MHC binding, purified MHC/competitive/fluorescence; filed as Kd, often an IC50 or EC50 that approximates it; ≥ and ≤ were set here for values at or beyond the usual limits of such assays. To be noted: source organism: Mammarenavirus lassaense.
Experiment [5] deals with HLA-B*18:01. The experiment is described as above. Particulars: source organism: Mammarenavirus lassaense.
The target in a further experiment is HLA-B*35:01. The experiment can be described thus: IEDB peptide-MHC binding, purified MHC/direct/fluorescence; filed as Kd, often an IC50 or EC50 that approximates it; ≥ and ≤ were set here for values at or beyond the usual limits of such assays. To be noted: source organism: Burkholderia mallei ATCC 23344.
A further experiment addresses HLA-A*69:01. The description is as above.
The target in another experiment is HLA-A*02:19. Described as above. To be noted: source organism: Vibrio vulnificus YJ016.
Experiment [6] has as its target HLA-A*02:06. The description is as above. Particulars: source organism: Vibrio vulnificus YJ016.
In a further experiment the target is HLA-A*02:03. The description is as above. Particulars: source organism: Vibrio vulnificus YJ016.
Another experiment deals with HLA-A*02:12. Described as above. To be noted: source organism: Vibrio vulnificus YJ016.
The target of a further experiment is HLA-A*02:11. The description is as above. To be noted: source organism: Vibrio vulnificus YJ016.
Where [7] appears, read: source organism: Influenza A virus (A/Hong Kong/507/97(H5N1)).
The mark [8] stands for this setting: source organism: Campylobacter jejuni RM1221.
[9] abbreviates: source organism: Orthohantavirus hantanense.
The mark [10] stands for this setting: source organism: Mammarenavirus lassaense.
[11] abbreviates: source organism: Burkholderia mallei.
The mark [12] stands for this setting: source organism: Burkholderia mallei ATCC 23344.
Where [13] appears, read: source organism: Vibrio vulnificus YJ016.
Where [14] appears, read: source organism: Vibrio cholerae.
The mark [15] stands for this setting: source organism: Vibrio parahaemolyticus.

On to LAKSVFNSL, for which the Kd with HLA-A*11:01 (setting [7]) is ≥ 20 µM; in the experiment with HLA-B*15:01 (setting [7]) it was ≥ 20 µM; with HLA-A*01:01 (setting [7]) it was ≥ 20 µM; with HLA-B*08:03 (source organism: Influenza A virus (A/Taiwan/2/2006(H1N1))), 2.13 µM; with HLA-B*18:01 [1] (setting [7]), ≥ 20 µM; with HLA-B*27:05 (setting [7]) it was ≥ 20 µM. The Kd in the experiment with HLA-A*02:01 (setting [7]), in the experiment with HLA-B*58:01 (setting [7]), with HLA-B*44:02 (setting [7]), with HLA-B*46:01 (setting [7]), with HLA-A*29:02 and with HLA-A*03:01 (setting [7]) was ≥ 20 µM throughout. In addition, the dissociation constant Kd is ≥ 20 µM with HLA-B*40:01 (setting [7]), 0.726 µM with HLA-B*08:01 [2] and ≥ 20 µM with HLA-B*51:01.
As for VQKVNPAPK, the Kd is 0.904 µM with HLA-A*31:01 (setting [8]); 1.12 µM with HLA-B*15:01 (setting [8]); ≥ 20 µM with HLA-A*01:01 (setting [8]); ≥ 20 µM with HLA-B*08:03 (source organism: Campylobacter jejuni subsp. jejuni 81116); ≥ 20 µM with HLA-B*18:01 [1] (setting [8]); ≥ 20 µM with HLA-B*48:01. Also, the Kd in the experiment with HLA-B*27:05 (setting [8]) is ≥ 10 µM; with HLA-B*07:02 (setting [8]) it was ≥ 20 µM; with HLA-A*02:01 (setting [8]) it was ≥ 20 µM; with HLA-B*58:01 (setting [8]) it was ≥ 20 µM; with HLA-B*46:01 (setting [8]) it was ≥ 20 µM; with HLA-A*03:01 (setting [8]), 0.476 µM. Further, the dissociation constant (Kd) with HLA-B*40:01 (setting [8]), with HLA-A*68:02 (setting [8]), with HLA-B*57:01 (setting [8]) and with HLA-B*15:17 (setting [8]) was ≥ 20 µM in each case.
FQHERLGQF: the Kd with HLA-B*15:01 (setting [9]) was found to be 0.0204 µM; with HLA-B*15:02 (source organism: Hantaan virus Q32), 0.029 µM; with HLA-B*46:01 (setting [9]), 0.783 µM.
In the case of GYAWIDFDI, the dissociation constant (Kd) with HLA-B*08:01 [3] (setting [10]) is ≥ 20 µM; with HLA-A*11:01 (setting [10]), ≥ 20 µM; in the experiment with HLA-A*31:01 (setting [10]), ≥ 20 µM; with HLA-B*15:01 (setting [10]), ≥ 20 µM; in the experiment with HLA-A*01:01 (setting [10]) it was ≥ 20 µM; with HLA-A*24:02 (setting [10]), 0.0037 µM. Further, the Kd with HLA-A*26:01 (setting [10]), with HLA-B*08:03 (setting [10]), with HLA-B*07:02 (setting [10]), in the experiment with HLA-A*02:01 (setting [10]), with HLA-A*26:02 and with HLA-B*58:01 (setting [10]) was ≥ 20 µM in each case. Also, the Kd with HLA-A*23:01 is 0.0039 µM; in the experiment with HLA-A*68:02 (setting [10]) it was ≥ 20 µM; with HLA-B*57:01 (setting [10]), ≥ 20 µM; in the experiment with HLA-A*24:03 it was 0.0034 µM; with HLA-B*15:17 (setting [10]), ≥ 20 µM; in the experiment with HLA-A*02:06 [4] it was ≥ 20 µM. Further, the dissociation constant Kd with HLA-B*18:01 [5] came out at 0.408 µM.
With MMYASWGVH, the Kd with HLA-B*15:01 (setting [11]) was 0.0082 µM; in the experiment with HLA-B*15:02 (setting [12]), 0.003 µM; with HLA-B*07:02 (setting [12]), ≥ 20 µM; in the experiment with HLA-B*46:01 (setting [11]), 3.76 µM; with HLA-B*35:01, 2.68 µM.
For VVYKEAKIK, the Kd with HLA-B*08:01 [3] (setting [13]), in the experiment with HLA-B*15:01 (setting [14]), with HLA-A*01:01 (setting [14]), with HLA-A*69:01 (setting [14]), with HLA-A*24:02 (setting [14]) and with HLA-A*26:01 (setting [13]) was ≥ 20 µM each time. For the same sequence, the dissociation constant (Kd) with HLA-A*02:19 is ≥ 20 µM; with HLA-A*02:06 [6] it was 0.657 µM; with HLA-B*18:01 [1] (setting [14]), ≥ 20 µM; with HLA-B*27:05 (setting [14]), ≥ 20 µM; in the experiment with HLA-B*07:02 (setting [14]), ≥ 20 µM; in the experiment with HLA-A*02:01 (setting [14]) it was 0.978 µM. Moreover, the dissociation constant Kd is ≥ 20 µM with HLA-B*58:01 (setting [14]); ≥ 20 µM with HLA-B*44:02 (setting [14]); ≥ 20 µM with HLA-B*46:01 (setting [14]); 1.12 µM with HLA-A*02:03; 1.99 µM with HLA-A*02:12; 0.313 µM with HLA-A*03:01 (setting [14]). Moreover, the dissociation constant Kd was ≥ 20 µM with HLA-B*40:01 (setting [14]) and 0.868 µM in the experiment with HLA-A*02:11.
In the case of VQGYERIMY, the equilibrium dissociation constant (Kd) is ≥ 20 µM with HLA-B*08:01 [3] (setting [15]); ≥ 20 µM with HLA-A*11:01 (setting [15]); ≥ 20 µM with HLA-A*31:01 (setting [15]); 0.271 µM with HLA-B*15:01 (setting [15]); ≥ 20 µM with HLA-A*01:01 (setting [15]); ≥ 20 µM with HLA-A*69:01 (setting [15]). Besides, the dissociation constant (Kd) with HLA-A*26:01 (setting [15]), in the experiment with HLA-B*15:02 (setting [15]), with HLA-B*27:05 (setting [15]), with HLA-B*07:02 (setting [15]), in the experiment with HLA-A*02:01 (setting [15]) and with HLA-B*58:01 (setting [15]) was ≥ 20 µM throughout. Also, the equilibrium dissociation constant (Kd) with HLA-B*44:02 (setting [15]), in the experiment with HLA-B*46:01 (setting [15]), with HLA-A*03:01 (setting [15]) and with HLA-B*40:01 (setting [15]) was ≥ 20 µM in each case.
